Experimental data reported in publication PMC12559229, “Conserved hydrophilic checkpoints tune FocA-mediated formate:H^+ symport” (Nature Communications, 2025).
Ends that are not written are not given here. GS linker = not defined here

What was measured:
[1] = target: the molecule itself; test: cryo-EM structure; purified StrepII-tagged FocA solubilised in DDM, 5 mg/mL, vitrified at 4 °C; single-particle reconstruction with C5 symmetry (wild type also C1)
[2] = target: T1, Pyruvate formate-lyase (PflB), full length, His-tagged (E. coli, UniProt P09373 1-760); test: cross-linking; XL-MS with sulfo-SDA: 10 uM FocA modified with 50-fold sulfo-SDA (100 mM MOPS, 150 mM NaCl, DDM, pH 7.0), then mixed with 10 uM PflB and UV-irradiated (365 nm); digest with trypsin and GluC, LC/MS/MS; settings: both partners purified
T1 construct: Pyruvate formate-lyase PflB, E. coli, UniProt P09373, full length; also called His-tagged PflB
T1 sequence (looked up): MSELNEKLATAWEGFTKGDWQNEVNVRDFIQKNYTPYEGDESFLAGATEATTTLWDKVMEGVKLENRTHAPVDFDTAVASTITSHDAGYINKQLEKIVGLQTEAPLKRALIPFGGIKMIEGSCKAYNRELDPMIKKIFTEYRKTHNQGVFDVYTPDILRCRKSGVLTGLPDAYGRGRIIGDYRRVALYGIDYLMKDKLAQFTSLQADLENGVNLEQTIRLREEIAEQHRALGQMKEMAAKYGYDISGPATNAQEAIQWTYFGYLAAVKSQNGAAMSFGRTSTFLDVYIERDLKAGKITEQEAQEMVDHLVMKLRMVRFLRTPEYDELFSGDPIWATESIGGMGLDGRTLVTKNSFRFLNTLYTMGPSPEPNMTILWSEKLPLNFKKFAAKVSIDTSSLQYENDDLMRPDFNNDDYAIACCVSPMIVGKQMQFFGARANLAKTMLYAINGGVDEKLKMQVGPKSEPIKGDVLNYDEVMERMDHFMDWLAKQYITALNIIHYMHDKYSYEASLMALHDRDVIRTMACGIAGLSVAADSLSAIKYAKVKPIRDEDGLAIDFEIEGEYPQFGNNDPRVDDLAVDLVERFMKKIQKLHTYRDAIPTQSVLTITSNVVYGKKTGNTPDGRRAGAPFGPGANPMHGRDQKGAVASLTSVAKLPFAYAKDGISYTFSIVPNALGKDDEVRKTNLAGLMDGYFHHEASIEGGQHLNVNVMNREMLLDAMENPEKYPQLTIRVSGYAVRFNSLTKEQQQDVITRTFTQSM

[3] = target: T1, Pyruvate formate-lyase (PflB), full …; test: cross-linking; XL-MS with DSBU: 10 uM PflB with equimolar FocA N-terminal peptide, 50- or 100-fold DSBU, 30 min, room temperature, 100 mM MOPS, 150 mM NaCl, pH 7.0; digest with trypsin and GluC, LC/MS/MS; settings: both partners purified

B1: FocA (formate channel), wild type, full length, C-terminal StrepII-tag (natural protein, E. coli, UniProt P0AC23 1-285, looked up)
chain: MKADNPFDLLLPAAMAKVAEEAGVYKATKHPLKTFYLAITAGVFISIAFVFYITATTGTGTMPFGMAKLVGGICFSLGLILCVVCGADLFTSTVLIVVAKASGRITWGQLAKNWLNVYFGNLVGALLFVLLMWLSGEYMTANGQWGLNVLQTADHKVHHTFIEAVCLGILANLMVCLAVWMSYSGRSLMDKAFIMVLPVAMFVASGFEHSIANMFMIPMGIVIRDFASPEFWTAVGSAPENFSHLTVMNFITDNLIPVTIGNIIGGGLLVGLTYWVIYLRENDHH
notes: FocA, formate channel of the formate-nitrite transporter family, E. coli, UniProt P0AC23, full length; Pentamer in the cryo-EM structure; In the sulfo-SDA experiment FocA was first modified on amines with sulfo-SDA; also called native FocA; wild-type FocA; source: E. coli BL21(DE3) transformed with pfocA3; solubilised from membranes with DDM, purified (Strep-Tactin Sepharose); not shown: StrepII, …
stoichiometry N [1]: 5
binding result [2]: binds

B2: FocA-H209N variant, C-terminal StrepII-tag (natural protein, E. coli, UniProt P0AC23 1-285, looked up)
chain: MKADNPFDLLLPAAMAKVAEEAGVYKATKHPLKTFYLAITAGVFISIAFVFYITATTGTGTMPFGMAKLVGGICFSLGLILCVVCGADLFTSTVLIVVAKASGRITWGQLAKNWLNVYFGNLVGALLFVLLMWLSGEYMTANGQWGLNVLQTADHKVHHTFIEAVCLGILANLMVCLAVWMSYSGRSLMDKAFIMVLPVAMFVASGFENSIANMFMIPMGIVIRDFASPEFWTAVGSAPENFSHLTVMNFITDNLIPVTIGNIIGGGLLVGLTYWVIYLRENDHH
notes: FocA, E. coli, UniProt P0AC23, with the exchange H209N; made by mutagenesis of pfocA3, which carries the native focA gene; Reconstructed with C5 symmetry; also called H209N-FocA; source: E. coli BL21(DE3) transformed with pfocAH209N; solubilised from membranes with DDM, purified (Strep-Tactin Sepharose); not shown: StrepII, C-terminal, kept
binding result [1]: binds

B3: FocA N-terminal peptide (residues 1-35 of FocA, GS linker, Strep-II tag) (peptide)
peptide: MKADNPFDLLLPAAMAKVAEEAGVYKATKHPLKTF-{GS linker-Strep‑II tag}
modifications: reading uncertain
notes: FocA, E. coli, residues 1-35 (the N-terminus of FocA); Whole peptide as printed, 45 residues: [residues removed]; also called N-terminal FocA peptide (1-45); N-terminal peptide of FocA; source: synthetic peptide (Thermo Fisher); not shown: StrepII (after a GS linker), C-terminal, kept
binding result [3]: binds
